Test results published in patent US20080125364A1, “Methods and Compositions for Treating Epithelial Cancers” (priority 2004, published 2008).

How the values were obtained:
[1] = test system: Pa4-Raf1 cells; experiment: Cloning efficiency (anchorage-independent growth) in soft agarose; type: cell-based, rat; settings: Pa4-Raf1 cells expressing the construct, 4 weeks, colonies >0.4 mm counted
Method: Pa4 cells, Pa4-Raf1 cells and Pa4-Raf1 cells expressing full-length occludin or various occludin mutants were seeded a density of 1×10^4 cells per 35-mm culture dish in 1 ml of 0.35% (wt/vol) low melting point agarose solution diluted with complete medium. Dishes were coated with 1 ml of 0.7% (wt/vol) low melting point agarose before cell plating, and 1 ml of overlay medium was added after cell plating. The dishes were incubated at 35° C. in 5% CC>2 and 95% air for 4 weeks. The overlay medium was changed every 3 days. After 4 weeks, the cells were stained with 3-[4,5-dimethylthiazol-2-yl]-2,5-diphenyltetrazolium bromide (MTT; 0.05 mg/ml). The stained dishes were photographed, and colonies >0.4 mm in diameter were counted and analyzed.

[2] = test system: Pa4-Raf1 cells; experiment: Paracellular permeability to FD-3 (3 kDa FITC-dextran); type: cell-based, rat; settings: Pa4-Raf1 cells expressing the construct
Method: (§1) For transepithelial electrical resistance (TER) measurements, cells were plated on polycarbonate filters with a pore size of 0.4 μm. A Millicell-ERS volt-ohm meter (Millipore) was used to determine the TER value. All TER values were normalized for the area of the filter and were obtained by subtracting the contribution of the filter and bathing solution. Paracellular permeability to fluoresceinated dextran (FD-3; MW 3000) was assessed according to previously published methods (Sanders et al., 1995). Briefly, cells were grown on polycarbonate filters with a pore size of 0.4 μm. TER was measured and then cells were washed in Hanks balanced salt solution/10 mM HEPES (HBSS^+) and equilibrated at 37° C. for 10 min on an orbital shaker. Cells were loaded apically with 1 mg/ml FD-3 (Molecular Probes) at time=0. Basolateral samples were taken at t=0, 30, 60, 90 and 120 minutes, and fluorescence intensity was analyzed on a CytoFluor 2350 Fluorescence Measurement System (Millipore, Cambridge, Mass.). FD-3 concentrations transported were extrapolated from a standard curve (generated by diluting known concentrations of fluorescent tracer) and expressed as ng FD-3 transported/cm^2/hour. Numerical values from individual experiments were pooled and expressed as mean ±standard error of the mean. Data shown are representative of at least three experiments.

[3] = test system: Pa4-Raf1 cells; experiment: Transepithelial electrical resistance (TER) of monolayers on filter supports; type: cell-based, rat; settings: Pa4-Raf1 cells expressing the construct, after 5 days of culture on semi-permeable filter supports
Method: as §1

[4] = test system: Pa4-Raf1 cells; experiment: Phase contrast and immunofluorescence microscopy of cell morphology and junctional proteins; type: cell-based, rat; settings: Pa4-Raf1 cells expressing the construct, grown on plastic
Method: Cells grown on glass coverslips or on polycarbonate filters (NK, Costar, Cambridge, Mass., US) with a pore size of 0.4 μm were rinsed with HBSS containing calcium and magnesium (HBSS^+). Cells were fixed and permeabilized in absolute methanol for 20 min at −20° C., followed by blocking in HBSS^+ containing 5% normal goat serum (blocking buffer) for 1 h at room temperature and incubation for 60 min with primary antibodies to human occludin, claudin-1, and ZO-1, (Zymed Laboratories, San Francisco, Calif.), E-cadherin (BD Biosciences) in blocking buffer. Cells were then washed, incubated for 60 min with Alexa dye-conjugated secondary antibodies (Molecular Probes, Eugene, Oreg.), followed by rinsing and mounting on slides with PROLONG ANTIFADE medium (Molecular Probes). For double labeling of junctional proteins, cells were fixed and permeabilized in absolute methanol and blocked in blocking buffer. Cells were sequentially stained with two primary antibodies. Donkey anti-goat and anti-rabbit antibodies conjugated to fluorescent red or green Alexa dyes (Molecular Probes) were used for detection of the respective primary antibodies. Stained cells were scanned using a Zeiss LSM510 laser scanning confocal microscope (Zeiss Microimaging Inc., Thornwood, N.Y.) coupled to a Zeiss 100M axiovert and 40× or 63× Pan-Apochromat oil lenses. […]

[5] = test system: Pa4-Raf1 cells; experiment: Oligonucleotide microarray comparison of mRNA abundance; type: cell-based, rat; settings: for correction of Raf1-driven gene expression changes (mRNA abundance): forced expression in Pa4-Raf1 cells
Text: Based upon internal quality control data, differential expression values greater than 1.5 obtained with Agilent Oligonucleotide microarrays are likely to be significant. Using this benchmark, we compared microarray data for entire rat genome obtained from Pa-4 cells before and after stable transfection with constitutively active Raf1 (Pa4-Raf1). […] Genes affected by active Raf1 in Pa4 cells included transcription factors, response elements, regulatory molecules, growth factor receptors, cell-cell contact proteins, and cytoskeletal elements that were consistent with those identified in other studies examining epithelial cell gene modulation associated with Ras/Raf/MAP kinase pathway activation. The strongest mRNA abundance profile shifts occurred in genes associated with cell polarity, proliferation and sensitivity to apoptotic stimuli. Numerous genes identified by the present studies have been previously reported as being targets of cell regulation in other cancer cell microarray studies.

[6] = test system: Pa4-Raf1 cells; experiment: Tumorigenicity in nude mice; type: in vivo; settings: Pa4-Raf1 cells expressing the construct, injected subcutaneously, 6 weeks post injection
Method: The nude mice were used to assay tumorigenicity in vivo. Pa4 cells, Pa4-Raf1 cells and Pa4-Raf1 cells expressing fall-length occludin or various occludin mutants were grown to logarithmic growth phase, harvested, washed, and resuspended in PBS for injection. Each of the cell lines (1×10^6 cells in 200 μl PBS) was injected subcutaneously into the flanks of four male nude mice. Tumor formation was monitored daily. All nude mice were sacrificed at six weeks, with tumors being isolated and analyzed.

B1: Occ: full-length human occludin with C-terminal myc-tag, stably expressed in Raf1-transformed Pa4 cells (protein, UniProt Q16625 1-522, looked up)
chain: MSSRPLESPPPYRPDEFKPNHYAPSNDIYGGEMHVRPMLSQPAYSFYPEDEILHFYKWTSPPGVIRILSMLIIVMCIAIFACVASTLAWDRGYGTSLLGGSVGYPYGGSGFGSYGSGYGYGYGYGYGYGGYTDPRAAKGFMLAMAAFCFIAALVIFVTSVIRSEMSRTRRYYLSVIIVSAILGIMVFIATIVYIMGVNPTAQSSGSLYGSQIYALCNQFYTPAATGLYVDQYLYHYCVVDPQEAIAIVLGFMIIVAFALIIFFAVKTRRKMDRYDKSNILWDKEHIYDEQPPNVEEWVKNVSAGTQDVPSPPSDYVERVDSPMAYSSNGKVNDKRFYPESSYKSTPVPEVVQELPLTSPVDDFRQPRYSSGGNFETPSKRAPAKGRAGRSKRTEQDHYETDYTTGGESCDELEEDWIREYPPITSDQQRQLYKRNFDTGLQEYKSLQSELDEINKELSRLDKELDDYREESEEYMAAADEYNRLKQVKGSADYKSKKNHCKQLKSKLSHIKKMVGDYDRQKT
modifications: full-length C-terminal myc-tag
notes: full-length human occludin with C-terminal myc-tag, stably expressed in Raf1-transformed Pa4 cells
For B1, the “average number of colonies on soft agarose” value [1] was 5 colonies, the FD-3 flux rate [2] was −1,500 ng/cm^2/hr and the “transepithelial electrical resistance (TER)” value [3] was greater than 900 O-cm^2. For the same molecule, the “rescue of epithelial cell morphology” value [4] was “recovered epithelial morphology”, the “rescue of epithelial cell morphology” value ([4]; listed as full-length occludin) was “tightly clustered colonies” and the “growth factor binding protein mRNA up-regulation” value ([5]; Pa4 Raf1 cells, forced occludin expression) was 35 fold. The “aquaporin-1 mRNA levels” value ([5]; Raf1-induced nearly 4-fold increase) was “corrected”, the “correction of Raf1-driven gene expression changes (mRNA abundance)” value [5] was “remarkable reversal of essentially all of the genomic changes” and the “correction of Raf1 gene modifications of Table 1” value ([5]; genes of Table 1) was “corrected”. The “REX-3 mRNA abundance” value ([5]; up-regulated 37-fold by Raf1) was “down-regulated by occludin to an equivalent extent” and the tumor formation [6] was “failed to produce tumors”.

B2: claudin-1: tight junction protein claudin-1 force-expressed in Pa4-Raf1 cells (protein, UniProt O95832 1-211, looked up)
Claudin-1: MANAGLQLLGFILAFLGWIGAIVSTALPQWRIYSYAGDNIVTAQAMYEGLWMSCVSQSTGQIQCKVFDSLLNLSSTLQATRALMVVGILLGVIAIFVATVGMKCMKCLEDDEVQKMRMAVIGGAIFLLAGLAILVATAWYGNRIVQEFYDPMTPVNARYEFGQALFTGWAAASLCLLGGALLCCSCPRKTTSYPTPRPYPKPAPSSGKDYV
B2 was tested, and the “correction of Raf1-driven gene expression changes (mRNA abundance)” value [5] was “fails to affect correction of gene modifications”.
